The record followed here is publication PMC11968058.

Where a chain is given by its changes, count along the chain named. Names and notes keep the numbering of the source.

Substrate in this series: O=C(O)/C=C/c1ccc(O)c(O)c1
As to the kind of experiment: purified protein. The settings on record: co-substrate SAM.

Setting [1] is: optimal conditions (30°C, pH 8.0).
[2] abbreviates: optimal conditions (35°C, pH 8.0).

B1: AtCOMT (Arabidopsis thaliana) (protein)
chain: MGSTAETQLTPVQVTDDEAALFAMQLASASVLPMALKSALELDLLEIMAKNGSPMSPTEIASKLPTKNPEAPVMLDRILRLLTSYSVLTCSNRKLSGDGVERIYGLGPVCKYLTKNEDGVSIAALCLMNQDKVLMESWYHLKDAILDGGIPFNKAYGMSAFEYHGTDPRFNKVFNNGMSNHSTITMKKILETYKGFEGLTSLVDVGGGIGATLKMIVSKYPNLKGINFDLPHVIEDAPSHPGIEHVGGDMFVSVPKGDAIFMKWICHDWSDEHCVKFLKNCYESLPEDGKVILAECILPETPDSSLSTKQVVHVDCIMLAHNPGGKERTEKEFEALAKASGFKGIKVVCDAFGVNLIELLKKL
The term kcat denotes the maximal rate divided by the concentration of active sites. Broadly, the kcat/Km is the turnover number divided by the Michaelis constant. As to B1, under setting [1], the kcat came out at 0.327 s⁻¹ and the specificity constant (kcat/Km) worked out at 482 M⁻¹ s⁻¹.

B2: AtCOMT (Arabidopsis thaliana; F174L/H313A/N129V) (protein)
chain: B1 chain with N129V, F174L, H313A
Regarding B2, under setting [2], the turnover number (kcat) is 0.475 s⁻¹ and the kcat/Km is 2020 M⁻¹ s⁻¹.

B3: AtCOMT (Arabidopsis thaliana; F174L) (protein)
chain: B1 chain with F174L
As to B3, under “optimal conditions”, the kcat worked out at 0.369 s⁻¹ and the kcat/Km was 1120 M⁻¹ s⁻¹.

B4: AtCOMT (Arabidopsis thaliana; H313A/N129V) (protein)
chain: B1 chain with N129V, H313A
As for B4, where the note is “optimal conditions”, the kcat was found to be 0.498 s⁻¹ and the specificity constant (kcat/Km) turned out to be 1390 M⁻¹ s⁻¹.

B5: AtCOMT (Arabidopsis thaliana; N129V) (protein)
chain: B1 chain with N129V
In the case of B5, where the note is “optimal conditions”, the kcat is 0.458 s⁻¹ and the catalytic efficiency (kcat/Km) stood at 828 M⁻¹ s⁻¹.

B6: AtCOMT (Arabidopsis thaliana; H313A) (protein)
chain: B1 chain with H313A
Take B6: for the setting “optimal conditions”, the turnover number (kcat) turned out to be 0.4 s⁻¹ and the kcat/Km is 606 M⁻¹ s⁻¹.
